Patent US20190085029

Test system: T1, CDK5 inhibitory (CDK5i) peptide
T1 sequence: ARAFGIPVRCYS

Purified recombinant p25/CDK5 complex
CDK5 kinase activity (radiolabeled ATP and its substrate, H1): the CDK5i peptide significantly reduced CDK5 kinase activity compared to that from a scrambled peptide-treated group
